Numbering of substitutions follows the chain as printed. Numbers in names are those of the source.
B1: TetRrev25/43: revTetR(BD) L17F E19- G24G (protein)
chain: MSRLDKSKVINSALELFNVGIEGLTTRKLAQKLGVEQPTLYWHVKNKRALLDALAVEILARHHDYSLPAAGESWQSFLRNNAMSFRRALLRYRDGAKVHLGTRPDEKQYDTVETQLRFMTENGFSLRDGLYAISAVSHFTLGAVLEQQEHTAALTDRPAAPDENLPPLLREALQIMDSDDGEQAFLHGLESLIRGFEVQLTALLQIV
modifications: Modified tetracycline repressor
notes: revTetR(BD) L17F E19- G24G
B2: TetRrev6-37-1: revTetR(BD) G96R A97S V99L (protein)
chain: MSRLDKSKVINSALELLNEVGIEGLTTRKLAQKLGVEQPTLYWHVKNKRALLDALAVEILARHHDYSLPAAGESWQSFLRNNAMSFRRALLRYRDRSKLHLGTRPDEKQYDTVETQLRFMTENGFSLRDGLYAISAVSHFTLGAVLEQQEHTAALTDRPAAPDENLPPLLREALQIMDSDDGEQAFLHGLESLIRGFEVQLTALLQIV
modifications: Modified tetracycline repressor
notes: revTetR(BD) G96R A97S V99L
B3: TetRrev28/26: revTetR(BD) L14T N18Y G21G I22F (protein)
chain: B2 chain with L14T, N18Y, I22F, R96G, S97A, L99V
modifications: Modified tetracycline repressor
notes: revTetR(BD) L14T N18Y G21G I22F
B4: TetRrev6-38: revTetR(BD) Y93H G96W K98Q V99G (protein)
chain: B2 chain with Y93H, R96W, S97A, K98Q, L99G
modifications: Modified tetracycline repressor
notes: revTetR(BD) Y93H G96W K98Q V99G
B5: TetRrev28/23: revTetR(BD) A13A L14S N18K E23V (protein)
chain: B2 chain with L14S, N18K, E23V, R96G, S97A, L99V
modifications: Modified tetracycline repressor
notes: revTetR(BD) A13A L14S N18K E23V
B6: TetRrev4/6-3: revTetR(BD) D95A V99G (protein)
chain: B2 chain with D95A, R96G, S97A, L99G
modifications: Modified tetracycline repressor
notes: revTetR(BD) D95A V99G
B7: TetRrev4/6-15: revTetR(BD) A56S I59A L60W V99V (protein)
chain: B2 chain with A56S, I59A, L60W, R96G, S97A, L99V
modifications: Modified tetracycline repressor
notes: revTetR(BD) A56S I59A L60W V99V
B8: TetRrev6-51: revTetR(BD) A97T V99G (protein)
chain: B2 chain with R96G, S97T, L99G
modifications: Modified tetracycline repressor
notes: revTetR(BD) A97T V99G
B9: TetRrev4/6-24: revTetR(BD) A61T V99R (protein)
chain: B2 chain with A61T, R96G, S97A, L99R
modifications: Modified tetracycline repressor
notes: revTetR(BD) A61T V99R
B10: TetRrev4/6-17: revTetR(BD) G99R V99L L101I (protein)
chain: B2 chain with S97A, L101I
modifications: Modified tetracycline repressor
notes: revTetR(BD) G99R V99L L101I
B11: TetRrev22/5: revTetR(BD) E15V L17A E19D (protein)
chain: B2 chain with E15V, L17A, E19D, R96G, S97A, L99V
modifications: Modified tetracycline repressor
notes: revTetR(BD) E15V L17A E19D
B12: TetRrev4/6-4: revTetR(BD) D95A V99G V57V A61G (protein)
chain: B2 chain with A61G, D95A, R96G, S97A, L99G
modifications: Modified tetracycline repressor
notes: revTetR(BD) D95A V99G V57V A61G
B13: TetRrev4/6-6: revTetR(BD) D53Y V57V A61P (protein)
chain: B2 chain with D53Y, A61P, R96G, S97A, L99V
modifications: Modified tetracycline repressor
notes: revTetR(BD) D53Y V57V A61P
B14: TetRrev4/6-10: revTetR(BD) A56S V99E (protein)
chain: B2 chain with A56S, R96G, S97A, L99E
modifications: Modified tetracycline repressor
notes: revTetR(BD) A56S V99E
B15: TetRrev28/27: revTetR(BD) L17G I22M (protein)
chain: B2 chain with L17G, I22M, R96G, S97A, L99V
modifications: Modified tetracycline repressor
notes: revTetR(BD) L17G I22M
B16: TetRrev6-54: revTetR(BD) Y93F D95N V99F (protein)
chain: B2 chain with Y93F, D95N, R96G, S97A, L99F
modifications: Modified tetracycline repressor
notes: revTetR(BD) Y93F D95N V99F
B17: TetRrev6-53: revTetR(BD) A97P K98R V99D (protein)
chain: B2 chain with R96G, S97P, K98R, L99D
modifications: Modified tetracycline repressor
notes: revTetR(BD) A97P K98R V99D
B18: TetRrev4/6-27: revTetR(BD) V99R (protein)
chain: B2 chain with R96G, S97A, L99R
modifications: Modified tetracycline repressor
notes: revTetR(BD) V99R
B19: TetRrev28/16: revTetR(BD) L14L E15A L17G L25V (protein)
chain: B2 chain with E15A, L17G, L25V, R96G, S97A, L99V
modifications: Modified tetracycline repressor
notes: revTetR(BD) L14L E15A L17G L25V
B20: TetRrev4/6-5: revTetR(BD) A54S V99R (protein)
chain: B2 chain with A54S, R96G, S97A, L99R
modifications: Modified tetracycline repressor
notes: revTetR(BD) A54S V99R
B21: TetRrev1/34: revTetR(BD) L17S E23K (protein)
chain: B2 chain with L17S, E23K, R96G, S97A, L99V
modifications: Modified tetracycline repressor
notes: revTetR(BD) L17S E23K
B22: TetRrev4/6-7: revTetR(BD) L55L L60V A97V V99G (protein)
chain: B2 chain with L60V, R96G, S97V, L99G
modifications: Modified tetracycline repressor
notes: revTetR(BD) L55L L60V A97V V99G
B23: TetRrev3/38: revTetR(BD) L17H I22F E23G (protein)
chain: B2 chain with L17H, I22F, E23G, R96G, S97A, L99V
modifications: Modified tetracycline repressor
notes: revTetR(BD) L17H I22F E23G
B24: TetRrev6-50: revTetR(BD) V99G (protein)
chain: B2 chain with R96G, S97A, L99G
modifications: Modified tetracycline repressor
notes: revTetR(BD) V99G
B25: TetRrev4/6-25: revTetR(BD) I59S L60L R62G D95A V99L (protein)
chain: B2 chain with I59S, R62G, D95A, R96G, S97A
modifications: Modified tetracycline repressor
notes: revTetR(BD) I59S L60L R62G D95A V99L
B26: TetRrev19/48: revTetR(BD) N18K E19D V20L I22N E23A (protein)
chain: B2 chain with N18K, E19D, V20L, I22N, E23A, R96G, S97A, L99V
modifications: Modified tetracycline repressor
notes: revTetR(BD) N18K E19D V20L I22N E23A
B27: TetRrev28/8: revTetR(BD) L14S N18Y I22F L25L (protein)
chain: B2 chain with L14S, N18Y, I22F, R96G, S97A, L99V
modifications: Modified tetracycline repressor
notes: revTetR(BD) L14S N18Y I22F L25L

Each molecule was assayed on tet operator sequence (assay: β-galactosidase activity of a tetracycline-regulated promoter in transformed E. coli with revTetR, in the presence and absence of anhydrotetracycline (atc)). Details: RevTetR isolate cultured in the absence of anhydrotetracycline (ATC).
Assay type: cell-based, Escherichia coli
Outline: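 TetR(BD) chimera mutants (TetR(B) residues 1–50, TetR(D) 51–208) expressed in E. coli regulating a tet operator-controlled lacZ. β-Galactosidase measured in Miller units at 28 °C and 37 °C with and without anhydrotetracycline; reported as percent of maximal expression without Tet repressor.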

Molecule | β-Galactosidase Activity, Cultured Without ATC
B1 | 99.1241
B2 | 55.277
B3 | 89.3918
B4 | 96.194
B5 | 92.2055
B6 | 69.291
B7 | 66.054
B8 | 93.974
B9 | 95.596
B10 | 54.403
B11 | 92.312
B12 | 96.491
B13 | 67.879
B14 | 97.964
B15 | 95.0152
B16 | 6.393
B17 | 107.107
B18 | 108
B19 | 96.3269
B20 | 97.92
B21 | 79.3141
B22 | 86.036
B23 | 97.043
B24 | 60.464
B25 | 102.926
B26 | 79.9581
B27 | 98.6289

Same assay, conditions: RevTetR isolate cultured in the presence of anhydrotetracycline (ATC)

Molecule | β-Galactosidase Activity, Cultured With ATC
B1 | 1.7535
B2 | 20.04
B3 | 3.8006
B4 | 46.91
B5 | 2.9867
B6 | 0.878
B7 | 7.647
B8 | 4.499
B9 | 2.428
B10 | 2.601
B11 | 0.9755
B12 | 1.639
B13 | 3.197
B14 | 6.149
B15 | 1.6907
B16 | 1.268
B17 | 27.918
B18 | 49
B19 | 0.9453
B20 | 5.7
B21 | 0.9226
B22 | 2.151
B23 | 1.8287
B24 | 2.469
B25 | 3.433
B26 | 1.1143
B27 | 4.4123
